The text below walks through data of patent US20160251695.

The target in data set [1] is T1, α-fructosyl-valyl-histidyl-leucyl-threonyl-proryl-glutamic acid.
T1 chain: VHLTPE
As to conditions: for αF6P oxidation activity: scale: relative value.

Data set [2] addresses T2, α-fructosyl-valyl-histidine.
T2 chain: VH

B1: amadoriase exhibiting 95% sequence identity with ketoamine oxidase derived from Curvularia clavata (protein)
chain: MAPSRANTSVIVVGGGGTIGSSTALHLVRSGYTPSNITVLDAYPIPSSQSAGNDLNKIMGIRLRNKVDLQLSLEARQMWREDDLFKEYFHNTGRLDCAHGEEGLADLRQAYQALLDANAGLEETTEWLDSEDEILKKMPLLSRDQIKGWKAVYSQDGGWLAAAKAINAIGEYLRAQGVKFGFGGAGSFKQPLLAEGVCIGVETVDGTRYYADKVVLAAGAWSPTLVELHEQCVSKAWVYGHIQLTPEEAAEYKNSPVVYNGDVGFFFEPNEHGVIKVCDEFPGFTRFKMHQPFGAKAPKRISVPRSHAKHPTDTIPDASEKSIRKAIATFLPKFTEKELFNRHLCWCTDTADAALLICEHPEWKNFVLATGDSGHSFKLLPNIGKHVVELLEGTLADDLAHAWRWRPGSGDALKSRRSAPAKDLADMPGWKHDDVVKSKL
The protein B1 gave a αF6P oxidation activity in data set [1] of 0.

B2: Cc95FX-62D/63H/106K/110L/113K/353S (protein)
chain: MAPSRANTSVIVVGGGGTIGSSTALHLVRSGYTPSNITVLDAYPIPSSQSAGNDLNKIMGIDHRNKVDLQLSLEARQMWREDDLFKEYFHNTGRLDCAHGEEGLAKLRQLYQKLLDANAGLEETTEWLDSEDEILKKMPLLSRDQIKGWKAVYSQDGGWLAAAKAINAIGEYLRAQGVKFGFGGAGSFKQPLLAEGVCIGVETVDGTRYYADKVVLAAGAWSPTLVELHEQCVSKAWVYGHIQLTPEEAAEYKNSPVVYNGDVGFFFEPNEHGVIKVCDEFPGFTRFKMHQPFGAKAPKRISVPRSHAKHPTDTIPDASEKSIRKAIATFLPKFTEKELFNRHLCWCTDTADSALLICEHPEWKNFVLATGDSGHSFKLLPNIGKHVVELLEGTLADDLAHAWRWRPGSGDALKSRRSAPAKDLADMPGWKHDDVVKSKL
On to B2, for which the αF6P oxidation activity in data set [1] came to 237.

B3: CFP-T7-H1 (protein)
chain: MTSNRADTRVIVVGGGGTIGSSTALHLVRSGYAPANITVLDTFEIPSAQSAGHDLNKIMGIALRNKVDLQMSLEARQMWKEDELFQPFFHNTGRMDCEHTPEGIEDLKKQYQALHDAGAGLEKTHAWLDNEDEILSKMPLLQRDQIQGWKAIWSQDGGWLAAAKAINAIGQFLKERGVKFGFGGAGSFKQPLFDDEGTTCIGVETADGTKYYADKVVLAAGAWSPTLVDLEDQCCSKAWVYAHIQLTPEEAAEYKGVPVVYNGEFGFFFEPDEFGVIKVCDEFPGFSRFKEHQPYGAPSPKRISVPRSHAKHPTDTYPDASEVSIKKAIATFLPRFQDKELFNRALCWCTDTADAALLMCEHPKWKNFILATGDSGHSFKILPNVGKYVVELIEGRLPEEMAYQWRWRPGGDALKSRRAAPPKDLADMPGWKHDPKL
Protein B3 registered a αF6P oxidation activity in data set [1] of 0.0316. For the same protein, the αFVH oxidation activity result in data set [2] was “exhibited αF6P oxidation activity, in addition αFV oxidation activity and αFVH oxidation activity”.

B4: CFP-T7-H20 (protein)
chain: MTSNRADTRVIVVGGGGTIGSSTALHLVRSGYAPANITVLDTFEIPSAQSAGHDLNKIMGIDLRNKVDLQMSLEARQMWKEDELFQPFFHNTGRMDCEHTPEGIEKLKKLYQKLHDAGAGLEKTHAWLDNEDEILSKMPLLQRDQIQGWKAIWSQDGGWLAAAKAINAIGQFLKERGVKFGFGGAGSFKQPLFDDEGTTCIGVETADGTKYYADKVVLAAGAWSPTLVDLEDQCCSKAWVYAHIQLTPEEAAEYKGVPVVYNGEFGFFFEPDEFGVIKVCDEFPGFSRFKEHQPYGAPSPKRISVPRSHAKHPTDTYPDASEVSIKKAIATFLPRFQDKELFNRALCWCTDTADAALLMCEHPKWKNFILATGDSGHSFKILPNVGKYVVELIEGRLPEEMAYQWRWRPGGDALKSRRAAPPKDLADMPGWKHDPKL
For B4, in data set [1], the Specific activity (U/mg), 1 mM αF6P was 0.85 U/mg; the αF6P oxidation activity ratio (relative value (CFP-T7-H20 = 100)) is 100; the αF6P oxidation activity is 20.5. Further, the Specific activity (U/mg), 1 mM αFVH in data set [2] turned out to be 4.28 U/mg.

B5: CFP-T7-H4 (protein)
chain: MTSNRADTRVIVVGGGGTIGSSTALHLVRSGYAPANITVLDTFEIPSAQSAGHDLNKIMGIALRNKVDLQMSLEARQMWKEDELFQPFFHNTGRMDCEHTPEGIEDLKKYYQALHDAGAGLEKTHAWLDNEDEILSKMPLLQRDQIQGWKAIWSQDGGWLAAAKAINAIGQFLKERGVKFGFGGAGSFKQPLFDDEGTTCIGVETADGTKYYADKVVLAAGAWSPTLVDLEDQCCSKAWVYAHIQLTPEEAAEYKGVPVVYNGEFGFFFEPDEFGVIKVCDEFPGFSRFKEHQPYGAPSPKRISVPRSHAKHPTDTYPDASEVSIKKAIATFLPRFQDKELFNRALCWCTDTADAALLMCEHPKWKNFILATGDSGHSFKILPNVGKYVVELIEGRLPEEMAYQWRWRPGGDALKSRRAAPPKDLADMPGWKHDPKL
In turn, B5 displayed a αF6P oxidation activity in data set [1] of 0.0341.

B6: CFP-T7-H21 (protein)
chain: MTSNRADTRVIVVGGGGTIGSSTALHLVRSGYAPANITVLDTFEIPSAQSAGHDLNKIMGIDLRNKVDLQMSLEARQMWKEDELFQPFFHNTGRMDCEHTPEGIEKLKKLYQRLHDAGAGLEKTHAWLDNEDEILSKMPLLQRDQIQGWKAIWSQDGGWLAAAKAINAIGQFLKERGVKFGFGGAGSFKQPLFDDEGTTCIGVETADGTKYYADKVVLAAGAWSPTLVDLEDQCCSKAWVYAHIQLTPEEAAEYKGVPVVYNGEFGFFFEPDEFGVIKVCDEFPGFSRFKEHQPYGAPSPKRISVPRSHAKHPTDTYPDASEVSIKKAIATFLPRFQDKELFNRALCWCTDTADAALLMCEHPKWKNFILATGDSGHSFKILPNVGKYVVELIEGRLPEEMAYQWRWRPGGDALKSRRAAPPKDLADMPGWKHDPKL
In data set [1], B6 yielded a Specific activity (U/mg), 1 mM αF6P of 0.795 U/mg and a αF6P oxidation activity of 20.8. Moreover, the Specific activity (U/mg), 1 mM αFVH in data set [2] is 4.05 U/mg.

B7: CFP-T7-H3 (protein)
chain: MTSNRADTRVIVVGGGGTIGSSTALHLVRSGYAPANITVLDTFEIPSAQSAGHDLNKIMGIALRNKVDLQMSLEARQMWKEDELFQPFFHNTGRMDCEHTPEGIEDLKKFYQALHDAGAGLEKTHAWLDNEDEILSKMPLLQRDQIQGWKAIWSQDGGWLAAAKAINAIGQFLKERGVKFGFGGAGSFKQPLFDDEGTTCIGVETADGTKYYADKVVLAAGAWSPTLVDLEDQCCSKAWVYAHIQLTPEEAAEYKGVPVVYNGEFGFFFEPDEFGVIKVCDEFPGFSRFKEHQPYGAPSPKRISVPRSHAKHPTDTYPDASEVSIKKAIATFLPRFQDKELFNRALCWCTDTADAALLMCEHPKWKNFILATGDSGHSFKILPNVGKYVVELIEGRLPEEMAYQWRWRPGGDALKSRRAAPPKDLADMPGWKHDPKL
In data set [1], B7 gave a αF6P oxidation activity of 0.0298.

B8: fructosyl amino acid oxidase derived from Aspergillus nidulans resulting from substitution of serine at position 59 with glycine (protein)
chain: MTPRANTKIIVVGGGGTMGSSTALHLLRAGYTPSNITVLDTCPIPSAQSAGYDLNKIMGIRLRNKPDLQLSLEALDMWKNDPLFKPFFHNVGMIDVSSTEEGIEGLRKKYQSLLDAGIGLEKTNFMLESEDEILAKAPHFTQEQIKGWKGLFCGDGGWLAAAKAINAIGQFLKEQGVKFGFGGAGTFKKPLFADAHEKTCIGVETVDGTKYYADKVVLAAGAWSSTLVDLEEQCVSKAWVFAHIQLTPAEAAAYKNTPVIYDGDYGFFFEPNENGIIKVCDEFPGFTHFKMHQPYGSPAPKPISVPRSHAKHPTDTYPHASEVTIKKAINRFLPRFNDKELFNRAMCWCTDTADANLLVCEHPRWKGFYLATGDSGHSFKLLPNIGKHVVELLEERLESVFKDAWRWRPGSGDALKSRRAAPAKDLADMPGWRNEAKM
B8 gave a Specific activity (U/mg), 1 mM αF6P in data set [1] of 0 U/mg.

B9: AnFX-61D/62H/101K/105K/109L/112K/355S (protein)
chain: MTPRANTKIIVVGGGGTMGSSTALHLLRAGYTPSNITVLDTCPIPSAQSAGYDLNKIMGIDHRNKPDLQLSLEALDMWKNDPLFKPFFHNVGMIDVSSTEKGIEKLRKLYQKLLDAGIGLEKTNFMLESEDEILAKAPHFTQEQIKGWKGLFCGDGGWLAAAKAINAIGQFLKEQGVKFGFGGAGTFKKPLFADAHEKTCIGVETVDGTKYYADKVVLAAGAWSSTLVDLEEQCVSKAWVFAHIQLTPAEAAAYKNTPVIYDGDYGFFFEPNENGIIKVCDEFPGFTHFKMHQPYGSPAPKPISVPRSHAKHPTDTYPHASEVTIKKAINRFLPRFNDKELFNRAMCWCTDTADSNLLVCEHPRWKGFYLATGDSGHSFKLLPNIGKHVVELLEERLESVFKDAWRWRPGSGDALKSRRAAPAKDLADMPGWRNEAKM
In turn, B9 registered a Specific activity (U/mg), 1 mM αF6P in data set [1] of 0.283 U/mg.

B10: AnFX-61D/105K/109L (protein)
chain: MTPRANTKIIVVGGGGTMGSSTALHLLRAGYTPSNITVLDTCPIPSAQSAGYDLNKIMGIDLRNKPDLQLSLEALDMWKNDPLFKPFFHNVGMIDVSSTEEGIEKLRKLYQSLLDAGIGLEKTNFMLESEDEILAKAPHFTQEQIKGWKGLFCGDGGWLAAAKAINAIGQFLKEQGVKFGFGGAGTFKKPLFADAHEKTCIGVETVDGTKYYADKVVLAAGAWSSTLVDLEEQCVSKAWVFAHIQLTPAEAAAYKNTPVIYDGDYGFFFEPNENGIIKVCDEFPGFTHFKMHQPYGSPAPKPISVPRSHAKHPTDTYPHASEVTIKKAINRFLPRFNDKELFNRAMCWCTDTADANLLVCEHPRWKGFYLATGDSGHSFKLLPNIGKHVVELLEERLESVFKDAWRWRPGSGDALKSRRAAPAKDLADMPGWRNEAKM
As for B10, in data set [1], the Specific activity (U/mg), 1 mM αF6P was found to be 0.106 U/mg.

B11: PnFX-62D/106K/110L/113K (protein)
chain: MAPSRANTSVIVVGGGGTIGSSTALHLVRSGYTPSNVTVLDAYPIPSSQSAGNDLNKIMGVDLRNPVDLQLALEARQMWNEDELFKKFFHNTGRLDCAHGEKDIAKLKSLYQKLVDAGLDATNEWLDSEDEILKRMPLLSRDQIKGWKAIFSKDGGWLAAAKAINAVGEYLRDQGVRFGFYGAGSFKAPLLAEGVCIGVETVDGTRYYADKVVLAAGAWSPTLVELHEQCVSKAWVYGHIQLTPEEAARYKNSPVVYNGDVGFFFEPNEHGVIKVCDEFPGFTRFKMHQPFGAKAPKRISVPRSHAKHPTDTIPDASDVSIRRAIATFMPQFKNKKMFNQAMCWCTDTADAALLICEHPEWKNFVLATGDSGHSFKLLPNIGKHVVELLEGTLADDLAHAWRWRPGSGDALKSRRSAPAKDLADMPGWNHDKPRANL
On to B11, for which, in data set [1], the Specific activity (U/mg), 1 mM αF6P was found to be 0.125 U/mg and the “specific activity on αF6P, fold over PnFX before mutation” value is listed as “specific activity on αF6P was elevated by 13.7 fold”.

B12: PnFX-62D/63H/106K/110L/113K/351S (protein)
chain: MAPSRANTSVIVVGGGGTIGSSTALHLVRSGYTPSNVTVLDAYPIPSSQSAGNDLNKIMGVDHRNPVDLQLALEARQMWNEDELFKKFFHNTGRLDCAHGEKDIAKLKSLYQKLVDAGLDATNEWLDSEDEILKRMPLLSRDQIKGWKAIFSKDGGWLAAAKAINAVGEYLRDQGVRFGFYGAGSFKAPLLAEGVCIGVETVDGTRYYADKVVLAAGAWSPTLVELHEQCVSKAWVYGHIQLTPEEAARYKNSPVVYNGDVGFFFEPNEHGVIKVCDEFPGFTRFKMHQPFGAKAPKRISVPRSHAKHPTDTIPDASDVSIRRAIATFMPQFKNKKMFNQAMCWCTDTADSALLICEHPEWKNFVLATGDSGHSFKLLPNIGKHVVELLEGTLADDLAHAWRWRPGSGDALKSRRSAPAKDLADMPGWNHDKPRANL
B12 showed a Specific activity (U/mg), 1 mM αF6P in data set [1] of 0.667 U/mg.
